Data on 22 sequences can be found in a protein production outcome set (Wang et al. 2014).

A short description of this series: label from the status in PepcDB records.
On to “QCPASVEKAIISSFSPVLNEPMLDYIDKAQVYLAAREKRKIGSLLNDTVGKHLPRLFKLYNYKHLIGLAEHEYGQIDFHISQIRTLSASNYVERFSSIKIPVLFINGEKDEYTTVEDARMFSNYIAKSSFNVVPDTGHFLDLESKAAWHHSQKTALSFLGT”, for which the protein production entry is on record as “not failed”.
The result for “MVGSVYTLFLYFSIILGVIVGVRTRSFHSSLAVLVFSSTFVAGIKYNNSYIAIISWLALSTLSSYLFHLNVIIKSRKDESVSNVLMGYLLGFFILLTLKLHGAGWILSILASYWVFYILLMFDYSKNRRAYYLLKTLWIIFSWGALIEAFGLQKELLPFLVVYTLIFILWFKRQEYSPT” reads “failed”; that for “MNLQNWKLSEYVCAVENLSYTEFFRIIEYANDAGIPVNFVTNGTLITEEFVKKLSELNIGSVQVSLDGSKPEIMDRLRGNGIFHRAINSIKRLIDYGINTSVAFCATRINIRDFPNVVELASKLGVFEVRSMYFVPETEAHIKLAPSESQYKELLQWIYDN”, “failed”; that for “MTTLVLVSHPHLADSTSQQFLKASINSDEVLWEHIESQATIDIEKEQAQLRQADRIILQFPLYWYAAPAGLKQWEDTVLTRTFVYGDHRYPLAGKELGIVVTTGMPAKAFQRGGAEQITLDAALAPLAAVANRAKMKWLPTFAIHQFAYLDEPAKLQLVVDYQRYLTQTQPDNLQNKQAWFAQHLPAMIERLPLEQQQAGQLILTAFEQQQTDLEALTDTLGLIKEQEDD”, “failed”.
The result for “YGNVWPWKSYEHVVAIAGGIGIPPIKALIEDMQGHTSLDKLTVLYGARSPSDIVYRSEIETWKEEMDFRITVDKGDENWRGHVGVVTTLVPEIKEYNHGAAFVIGPPVMMKFSVKSLLDAGFAEDNIYLSLERRMECG” reads “failed”; that for “MTPYDIKDPDVRRRRFRPIPVRMLVPNVITLLAICAGLTSIRLSIEGRMSLAVYAIVFAAALDGIDGRIARMIKGQSKFGAELDSLADFVNFGVAPGLMLYFWQLHELGNAGWIAAMVFAISGGLRLARFNATMDDPNKPAFAANFFTGVPAPAGAITVLLPIYVAFLDLGRAPAAVTAAYTLLIAFLMVSRLPVFSGKTKRMRVPPELVLPAFVAVIVFIAILIAYPWHVLSIGTVLYLLALPLGYKSYRDQARAMDAATPAGGEISSPPSAPTLANLSEPPHDDDRPGRLH”, “failed”.
The result for “MVSRDFDRDKRLLTARQFSAVFDSPTGKVPGKHVLLLARENGLDHPRLGLVIGKKNVKLAVQRNRLKRLIRESFRHNQETLAGWDIVVIARKGLGELENPELHQQFGKLWKRLLRNRPRTESPADAPGVAD” reads “not failed”.
Regarding “MPSMPFLTRPVLAAGTFSGAPQPTLPTGDGLVLRPWRTEDAPAVHVAFQDPVMHQWHARAADSEEEVRGWITEWQGAWERERGVQWAVADAADDRLLGRVALREWVLGDGVAEVAYWTTADARGRGVAARATRTLAHWALDEIGFQRLELLHAVANDASCRVAQKTGFALEGTKRKAVLHPDGWHDMHLHARVRGD”, the protein production result was “failed”.
The result for “MKAVIMAGGFGTRIQPLTSSIPKPMIPLLNRPIMLHIVELLKKYEITDLVMLLYHQPAVIKNFFRDGTDFGVKITYVTPLQDMGTAGAVKCAEKFLDERFLVISGDLLTDFNLQKIIDSHEDNKALATITLTSVKDPLQFGVVITDKEKRITQFLEKPGWGEVISDTINTGIYVFEPEIFAHIPEEENYDFSQDLFPKLLEQQKPLFGYTAKGYWRDIGNTDSYREAHHDIFKGKVNVKIDEAKQDLVGKDLRLGSDVNLDEHVTLEGTVVVGDNSQVFESAHIKDTVIGRNCTIEPGVRLNRCVIWDNVYVKKGAKLNDGVLCSNVRVGHGVVMEEGVIVADDTSIGEEAYIKRDVKIWPRKVIEAGATVTGNLIWGEKWKKSLFEGAMVKGLTNMELTPEFVAKLGCAYGTMLPKGSHIISGRDSYRSCRMLKRSFIGGLLSAGINVRDLTMVPMPVLRYKLRTFGEVGGIYFRQAIDDPASTEIVFLDGDGLDFSSSMGKNVERIFFKENFRRAHHTEPGALSEIPQQVTDFYREGFLHTIGKSPLQKKQFKVVIDFNHSSASQLLPGILTQMGCEVISLNAYVDEERGIQAVAERQQSLAQLSKIVATLEASAGFWLDPGTEGVIVVDETGKVYEGAELLPLMVGLALRSGEKGLFAVPVSAPSAIERMVQERGSAVTRTKSADRAMIEATLSSEVVLAGTMDGRFAFPKFQSAFDGMFAIAKTIELVAKGGLSISRVAAEIPQRVFLQTRVPCVWDMKGGIMRKMSEDSLDKEASFIDGIKVHFGEDWALVLPDQYLPYVHIVAEARDAKTAQKLLDEYKKKVEGWKRELQ” reads “failed”; that for “MKKAIQFGAGNIGRGFIGGLLVKSGYHVVFADVNEYILNSINKDKKYTIHIRDVECIDEVIDNISAVSSIKEEIIDEIVQAEIITTAVGPLVLTKIASTIAKGIKARKEKGLTSNLNIIACENAIYASSSLKEEVLKYLNKEEVEYLEMYVGFPNCSVDRIVPPGKNENPLDVTVENFYEWNVEKQGFKGEIPTIVGMNLADNLMAYIERKLFTLNTGHAITAYIGYLKGYKTIEESIKDKFICDIVKSAMVESGEGLIKKYNFDSEVHYKYIDKILNRFKNPYLNDDVLRVGREPLRKLSDKDRLIKPLMTAKSYGLSVDNLILGIGAALHYNNSEDTQSVELQELIKSIGVKKAVAKIANISNDEELLNNIEKSYIFMKNL”, “not failed”; that for “STMEKSVLGGQDQLRVRVTELEDEVRNLRKINRDLFDFSTRFITRPAK”, “not failed”.
The result for “DTVLIVNKKAEIIWINNNITNLLGYLPDELLGKSIECLVPSRTREKHVNLRNSFINKPNKRSMNQGSGLWAVHKKNHEIPVCIDLNHYEESGEKFTVCSIRL” reads “failed”; that for “MSPFDTPRRLVAEALGTALLLAVVVGSGIMGERLSDGNIAIALLGNTLATGAALVVLIWVFGPISGAHFNPAVTLVAALRRELPLTLALAYPLAQILGGIAGVWTAHAMFGEPILQVSTKLRSGGDQAFAEVVATFGLLATILGVSRFRPESTPMAVGLYITAAYWFTASTSFANPAVTVARSLSDSFAGIAPASAPAFILAQLVGALSAAALFGWLLKTDTSR”, “failed”; that for “MNRVFKKNSVFAIIFAACSWGGFLDRAYAEACPSEDFSKFLTVFSATPEVQQRFTAVKVQALVLKPAKQTDRFEPQTTDVANASLAYPLMGPIISDKTDGVQIEAVDDRHVRVIDKRAGHSDIKVFNFSRQTCWVLAGMEDWSISEKDLSAAVQPKMNRSESLCFQRGRAYAGLGGVEQYPLTAEFFEAALENYVCAAASGDPQASLNAASLSLSGMAPQLETEKVEALFKAASTTLADGAAGLSSFYCYGNNVAADGPCQHPEQAEKELVRAVSMGSSDATNYLGYTLETGELRTTDLDRAIACYRLAASMGNQTAADNLKRLSKQATDVSTAGHCY”, “failed”.
On to “MAGLVKKTTGLVGLAVCDTPHERLTILYTKILDLLKHFPKHAAYRKYTEQITSEKLELVKLEPDVKKLENLLQGGEVEEVILQAEKELSLARKMLQWKPWEPLVEEPPANQWKWPI”, for which the protein production result is recorded as “failed”.
The result for “MIEKIVKEMTLKEKVGQLNQHLYGWQCYQKVNGKYELTDLFKEHVKEYGGVGAIYGILRADAWSQINRENGISREDSKIVITMIQEYIKKHSRFEIPALISEECVHGHMALGAPVFPTNLAMGMTWNPDLMERITHNVSQELAAKGGNLALFTGFDVLRDPRWGRSEECFSEDAYLTSCMTSAAVHGFQKEKNGVAVVVKHLCAQGGCVGGHNSDAALIGPRELREIHLPPVKAAIDAGAKAVMAAYNEIDGIPCHINKALLFETLRKEYDFSGIVMADGCALDRLLLLDDDILKVGSLALKAGVDLSLWDNVYLRLDEAIKQGYLTEEELDQAVLRVLRLKEELGLWEELNTYSLPEASDLLLQAARECQVLLKNNDSLLPLSSKQKIAVIGPNANHYLNQLGDYTAYQNKSDIVTVYDGICQKTEISPIYVQGCSIRGRKFDIEPALVAAKAADIVILVLGGNSTRLYQDTFENNGAVKANQENQMNCGENIDLASLELEGYQNELLLALKEVNPHIVTVLIQGRPHVINTVLKHSQAVLASFYPGSRGGEGIADVLFGDYNPSGHLSVSIPQHVGQLPCYYNHKHNGAQKDYVDMPGEALLPFGYGLSYSQFIYRDIKVPKAIKITDLLENGIDLQLEIYNNSTYDGEDVIQVYLKDHQASVVSRVIELKAFNKVKIQAYQSKQISIHLTSDAFAIWNYEMKYLVEPGDVSICIGVDSKHYQEFKLTLVK” reads “failed”; that for “MYRDRIRLPSLMSKVMSAADAAALIEDGMTVGMSGFTRAGEAKAVPHALAERAKVTPLKISLMTGASLGNDLDKQLTESGVLSRRMPFQVDSTLRKAINNGTVMFIDQHLSDTVELLRNRQIKAVDLAVIECVAITEEGHLVLSTSVGNSASFAILAKQVIVEINLSQPLELEGLHDIYIPSYRPTRLPIPVLEADSRIGSHAVKIDPAKIVGIVISNQPDSPSTVTPPDADTQAIANHLVEFFKKEVREDRLTDKLMPLQAGIGNIANAVMHGLLESPFTDLTMYSEVLQDSTFDLFDAGKLTFASGSSMTLSAAKHAEVFADFNRYKSRLVLRPQEISNHPEVIRRLGIIGINTALEFDLYGNVNSTHICGTRMMNGIGGSGDFSRNAHLAIFVTKSIAKGGAISSVVPMVSHVDHTEHDVDILVTEQGLADLRGLAPRERARVIIDNCVHADYRDALNAYFDAACALGGHTPHILREALSWHINLEENGRMLPT”, “failed”.
As to “MKVTVTTLELKDKITIASKALAKKSVKPILAGFLFEVKDGNFYICATDLETGVKATVNAAEISGEARFVVPGDVIQKMVKVLPDEITELSLEGDALVISSGSTVFRITTMPADEFPEITPAESGITFEVDTSLLEEMVEKVIFAAAKDEFMRNLNGVFWELHKNLLRLVASDGFRLALAEEQIENEEEASFLLSLKSMKEVQNVLDNTTEPTITVRYDGRRVSLSTNDVETVMRVVDAEFPDYKRVIPETFKTKVVVSRKELRESLKRVMVIASKGSESVKFEIEENVMRLVSKSPDYGEVVDEVEVQKEGEDLVIAFNPKFIEDVLKHIETEEIEMNFVDSTSPCQINPLDISGYLYIVMPIRLA”, the protein production entry was “not failed”.
The result for “MTCLFSDAPIPDHLYGAIVALGNFDGFHLGHQAVVAAAVARGHAEGRPVIVATFDPHPVRFFCPDLPPFALTTIPQRARLFEKAGADATFVIRFSEAMANLSPEEFIQQQIIDHLKAAGVVTGRDFTFGKGRKGGVDLLQAMGQNLNISVDTIMPVCDQQGAISSTRIREALKQGDPETAARLLSRP” reads “failed”.
The result for “MSIEPDGTVNRPEENIHLLQLHDSPVMRWLYLSIGMTALFMGILGIFLPILPTTPFILLAAGCFARSSERFHSYLLNHRIAGPIIREWCEYRSVARHVKRWAYLVMALSFGSSILIVSSWWLKGMLALLAMILFTFIWRLPVRDQSR” reads “failed”.
The result for “MAAIDAALKAGEKILSIYEDPKSDFEIERKADNSPLTIADRKAHEAIVAILNETPFPVLSEEGKHMDYAVRRGWDTLWIVDPLDGTKEFIKRNGEFTVNIALVQNAVPVMGVIYVPVKKELYFAVEGTGAYKCSGIVGLEDEGVTLQQMIEKSERMPLADARDHFIAVASRSHLTPETETYIADLKKKHGNVELISSGSSIKICLVAEGKADVYPRFAPTMEWDTAAGHAIARAAGMEVYQAGKEEPLRYNKEDLLNPWFIVEAKRER” reads “not failed”.
“MAQGFKITYTDQACLLDIQDPQNKESQSFHYALVPRGVEAENIPADYTVIETPIRSVICMTSLQLSNFIKLEELDAVVGITSTRHLFNKKINDRLKDGSIHKIGIEGNFDNEVIMSVNPDLILISPFKRGGYDALKEVGIPLMPHLGYKEMTPLGQAEWIKFVGLLLGREDKANKQFAAIKKRYNELKELTGLEHHHHHH”: the protein production entry is “failed”.
